Reference: article PMC2871011

Biological target: low-molecular-weight fibrinogen fraction I-9 isolated from plasma (human) (UniProt P02671)
Assay: co-purification

fold less latent TGF-β than in fraction I-2: 8 fold
Substance: latent TGF-β1 (TGF-β1 with its latency-associated protein) (from UniProt P01137 30-278) (complex)
